T1: human IL17 (human, UniProt Q16552 24-155)
T1 construct: for that reason an apparent KD is reported; also called IL17-A
T1 sequence (looked up): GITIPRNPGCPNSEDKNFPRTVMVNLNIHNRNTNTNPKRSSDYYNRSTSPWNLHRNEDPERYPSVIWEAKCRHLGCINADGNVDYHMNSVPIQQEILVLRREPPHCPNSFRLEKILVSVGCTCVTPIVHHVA

T2: TWEAK (human, UniProt O43508 94-249, limits assumed)
T2 construct: The method paragraph says only 'TWEAK'; also called human TWEAK; TNF-related weak inducer of apoptosis
T2 sequence (looked up): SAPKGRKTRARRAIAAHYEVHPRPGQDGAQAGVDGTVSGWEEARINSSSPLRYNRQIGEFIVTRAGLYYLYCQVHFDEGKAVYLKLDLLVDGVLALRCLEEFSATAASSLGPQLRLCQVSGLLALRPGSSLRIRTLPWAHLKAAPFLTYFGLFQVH


Experiments:
human IL17 [1] = biological target: T1, human IL17; test: SPR (Biacore), bispecific antibody captured by anti-human F(ab')2, human IL17 as analyte, 1:1 Langmuir, apparent KD
Method: (§1) Around 6000 resonance units (RU) of the capturing system (15 μg/ml goat anti human F(ab′)2; Order Code: 28958325; GE Healthcare Bio-Sciences AB, Schweden) were coupled on a CMS chip at pH 5.0 by using an amine coupling kit supplied by the GE Healthcare. The sample and system buffer was PBS-T (10 mM phosphate buffered saline including 0.05% Tween 20) pH 7.4. The bispecific antibody was captured by injecting a 50 nM solution for 90 sec at a flow of 10 μl/min. Association was measured by injection human IL17 in various concentrations in solution for 3 min at a flow of 30 μl/min starting with 50 nM in 1:1 serial dilutions. The dissociation phase was monitored for up to 10 min and triggered by switching from the sample solution to running buffer. The surface was regenerated twice by 60 sec wash with a 10 mM glycine pH 2.1 solution at a flow rate of 30 μl/min. Bulk refractive index differences were corrected by subtracting the response obtained from a goat anti human F(ab′)2 surface. Blank injections are also subtracted (=double referencing). For calculation of apparent KD and other kinetic parameters, the Langmuir 1:1 model was used.
(§2) Binding of the multispecific antibodies to their respective target antigens, i.e. IL17 and TWEAK, was assessed by Biacore® as described in the general methods section.

human IL17 [2] = biological target: T1, human IL17; test: SPR (Biacore), bispecific antibody captured by anti-human F(ab')2, human IL17 as analyte, 1:1 Langmuir
Method: as §1, §2

TWEAK = biological target: T2, TWEAK; test: SPR (Biacore), TWEAK amine-coupled on C1 chip, bispecific antibody as analyte, 1:1 Langmuir
Method: Around 100 RU of TWEAK was immobilized on the C1 chip surface at pH 5.0 using an amine coupling kit supplied by the GE Healthcare. The sample and system buffer was PBS-T (10 mM phosphate buffered saline including 0.05% Tween 20) pH 7.4. Association was measured by injection the bispecific antibody in various concentrations in solution for 3 min at a flow of 30 μl/min starting with 50 nM in 1:1 serial dilutions. The dissociation phase was monitored for up to 10 min and triggered by switching from the sample solution to running buffer. The surface was regenerated three times by 30 sec wash with a 3 M MgCl2 solution at a flow rate of 30 μl/min. Bulk refractive index differences were corrected by subtracting the response obtained from a blank-coupled surface. Blank injections are also subtracted (=double referencing). For calculation of KD and other kinetic parameters, the Langmuir 1:1 model was used.
as §2

Kd (human IL17 [1]) [pM]	koff (human IL17 [2]) [s⁻¹]	kon (human IL17 [2]) [M⁻¹ s⁻¹]	Kd (TWEAK) [pM]	koff (TWEAK) [s⁻¹]	kon (TWEAK) [M⁻¹ s⁻¹]	Binder
< 100	0.000204	1.09e+07	< 100	2.64e-05	707000	TweakIL17-0129 (bispecific antibody, human IgG4 S228P, kappa, CrossMAb CH1-CL, knob-into-hole with S354C/Y349C) light 1: DIVMTQSPLSLPVTPGEPASISCRSSQSLVHSNGDTYFHWYLQKPGQSPQLLIYKVSNRFSGVPDRFSGSGSGTDFTLKISRVEAEDVGVYYCSQTTHAPFTFGQGTKLEIKRTVAAPSVFIFPPSDEKLKSGTASVVCLLNNFYPREAKVQWKVDNALQSGNSQESVTEQDSKDSTYSLSSTLTLSKADYEKHKVYACEVTHQGLSSPVTKSFNRGEC heavy 1: EVQLVESGGGLVQPGGSLRLSCAASGFSLDSYGVHWVRQATGKGLEWVSVIWSDGTTTYNSALKSRFTISRENAKNSLYLQMNSLRAGDTAVYYCARDTHYRLYYYAMDYWGQGTTVTVSSASTKGPSVFPLAPCSRSTSESTAALGCLVEDYFPEPVTVSWNSGALTSGVHTFPAVLQSSGLYSLSSVVTVPSSSLGTKTYTCNVDHKPSNTKVDKRVESKYGPPCPPCPAPEFEGGPSVFLFPPKPKDTLMISRTPEVTCVVVDVSQEDPEVQFNWYVDGVEVHNAKTKPREEQFNSTYRVVSVLTVLHQDWLNGKEYKCKVSNKGLPSSIEKTISKAKGQPREPQVCTLPPSQEEMTKNQVSLSCAVKGFYPSDIAVEWESNGQPENNYKTTPPVLDSDGSFFLVSRLTVDKSRWQEGNVFSCSVMHEALHNHYTQKSLSLSLGK light 2: DIQMTQSPSSVSASVGDRVTITCQASQNIYSNLAWYQQKPGKAPKLLIYTASYLASGVPSRFSGSGSGTDYTLTISSLQPEDFATYYCQTAYYNSRPDTVAFGGGTKVEIKSSASTKGPSVFPLAPCSRSTSESTAALGCLVKDYFPEPVTVSWNSGALTSGVHTFPAVLQSSGLYSLSSVVTVPSSSLGTKTYTCNVDHKPSNTKVDKRVESKYG heavy 2: QVQLVQSGAEVKKPGSSVKVSCKASGFDFSTYYMSWVRQAPGQGLEWMGTVYVRQGTTYYASWLNGRVTITADESTSTAYMELSSLRSEDTAVYYCARGGYNYDDAFVIWGQGTLVTVSSASVAAPSVFIFPPSDEQLKSGTASVVCLLNNFYPREAKVQWKVDNALQSGNSQESVTEQDSKDSTYSLSSTLTLSKADYEKHKVYACEVTHQGLSSPVTKSFNRGECPPCPPCPAPEFEGGPSVFLFPPKPKDTLMISRTPEVTCVVVDVSQEDPEVQFNWYVDGVEVHNAKTKPREEQFNSTYRVVSVLTVLHQDWLNGKEYKCKVSNKGLPSSIEKTISKAKGQPREPQVYTLPPCQEEMTKNQVSLWCLVKGFYPSDIAVEWESNGQPENNYKTTPPVLDSDGSFFLYSRLTVDKSRWQEGNVFSCSVMHEALHNHYTQKSLSLSLGK
< 100	0.000194	1.04e+07	< 100	2.83e-05	859000	TweakIL17-0130 (bispecific antibody, human IgG4 S228P, kappa, CrossMAb CH1-CL, knob-into-hole with S354C/Y349C) light 1: DIVMTQSPLSLPVTPGEPASISCRSSQSLVHSNGDTYFHWYLQKPGQSPQLLIYKVSNRFSGVPDRFSGSGSGTDFTLKISRVEAEDVGVYYCSQTTHAPFTFGQGTKLEIKRTVAAPSVFIFPPSDKQLKSGTASVVCLLNNFYPREAKVQWKVDNALQSGNSQESVTEQDSKDSTYSLSSTLTLSKADYEKHKVYACEVTHQGLSSPVTKSFNRGEC heavy 1: EVQLVESGGGLVQPGGSLRLSCAASGFSLDSYGVHWVRQATGKGLEWVSVIWSDGTTTYNSALKSRFTISRENAKNSLYLQMNSLRAGDTAVYYCARDTHYRLYYYAMDYWGQGTTVTVSSASTKGPSVFPLAPCSRSTSESTAALGCLVKDYFPEPVTVSWNSGALTSGVHTFPAVLQSSGLYSLSSVVTVPSSSLGTKTYTCNVDHKPSNTKVDERVESKYGPPCPPCPAPEFEGGPSVFLFPPKPKDTLMISRTPEVTCVVVDVSQEDPEVQFNWYVDGVEVHNAKTKPREEQFNSTYRVVSVLTVLHQDWLNGKEYKCKVSNKGLPSSIEKTISKAKGQPREPQVCTLPPSQEEMTKNQVSLSCAVKGFYPSDIAVEWESNGQPENNYKTTPPVLDSDGSFFLVSRLTVDKSRWQEGNVFSCSVMHEALHNHYTQKSLSLSLGK light 2: DIQMTQSPSSVSASVGDRVTITCQASQNIYSNLAWYQQKPGKAPKLLIYTASYLASGVPSRFSGSGSGTDYTLTISSLQPEDFATYYCQTAYYNSRPDTVAFGGGTKVEIKSSASTKGPSVFPLAPCSRSTSESTAALGCLVKDYFPEPVTVSWNSGALTSGVHTFPAVLQSSGLYSLSSVVTVPSSSLGTKTYTCNVDHKPSNTKVDKRVESKYG heavy 2: QVQLVQSGAEVKKPGSSVKVSCKASGFDFSTYYMSWVRQAPGQGLEWMGTVYVRQGTTYYASWLNGRVTITADESTSTAYMELSSLRSEDTAVYYCARGGYNYDDAFVIWGQGTLVTVSSASVAAPSVFIFPPSDEQLKSGTASVVCLLNNFYPREAKVQWKVDNALQSGNSQESVTEQDSKDSTYSLSSTLTLSKADYEKHKVYACEVTHQGLSSPVTKSFNRGECPPCPPCPAPEFEGGPSVFLFPPKPKDTLMISRTPEVTCVVVDVSQEDPEVQFNWYVDGVEVHNAKTKPREEQFNSTYRVVSVLTVLHQDWLNGKEYKCKVSNKGLPSSIEKTISKAKGQPREPQVYTLPPCQEEMTKNQVSLWCLVKGFYPSDIAVEWESNGQPENNYKTTPPVLDSDGSFFLYSRLTVDKSRWQEGNVFSCSVMHEALHNHYTQKSLSLSLGK
< 100	0.000123	1.34e+06	< 100	4.82e-05	1.27e+06	TweakIL17-0049 (bispecific antibody, human IgG4 S228P, kappa, also called TweakIL17-0049 (control)) light 1: DIVMTQSPLSLPVTPGEPASISCRSSQSLVHSNGDTYFHWYLQKPGQSPQLLIYKVSNRFSGVPDRFSGSGSGTDFTLKISRVEAEDVGVYYCSQTTHAPFTFGQGTKLEIKRTVAAPSVFIFPPSDEQLKSGTASVVCLLNNFYPREAKVQWKVDNALQSGNSQESVTEQDSKDSTYSLSSTLTLSKADYEKHKVYACEVTHQGLSSPVTKSFNRGEC heavy 1: EVQLVESGGGLVQPGGSLRLSCAASGFSLDSYGVHWVRQATGKGLEWVSVIWSDGTTTYNSALKSRFTISRENAKNSLYLQMNSLRAGDTAVYYCARDTHYRLYYYAMDYWGQGTTVTVSSASTKGPSVFPLAPCSRSTSESTAALGCLVKDYFPEPVTVSWNSGALTSGVHTFPAVLQSSGLYSLSSVVTVPSSSLGTKTYTCNVDHKPSNTKVDKRVESKYGPPCPPCPAPEFEGGPSVFLFPPKPKDTLMISRTPEVTCVVVDVSQEDPEVQFNWYVDGVEVHNAKTKPREEQFNSTYRVVSVLTVLHQDWLNGKEYKCKVSNKGLPSSIEKTISKAKGQPREPQVCTLPPSQEEMTKNQVSLSCAVKGFYPSDIAVEWESNGQPENNYKTTPPVLDSDGSFFLVSRLTVDKSRWQEGNVFSCSVMHEALHNHYTQKSLSLSLGK light 2: DIQMTQSPSSVSASVGDRVTITCQASQNIYSNLAWYQQKPGKAPKLLIYTASYLASGVPSRFSGSGSGTDYTLTISSLQPEDFATYYCQTAYYNSRPDTVAFGGGTKVEIKSSASTKGPSVFPLAPCSRSTSESTAALGCLVKDYFPEPVTVSWNSGALTSGVHTFPAVLQSSGLYSLSSVVTVPSSSLGTKTYTCNVDHKPSNTKVDKRVESKYG heavy 2: QVQLVQSGAEVKKPGSSVKVSCKASGFDFSTYYMSWVRQAPGQGLEWMGTVYVRQGTTYYASWLNGRVTITADESTSTAYMELSSLRSEDTAVYYCARGGYNYDDAFVIWGQGTLVTVSSASVAAPSVFIFPPSDEQLKSGTASVVCLLNNFYPREAKVQWKVDNALQSGNSQESVTEQDSKDSTYSLSSTLTLSKADYEKHKVYACEVTHQGLSSPVTKSFNRGECPPCPPCPAPEFEGGPSVFLFPPKPKDTLMISRTPEVTCVVVDVSQEDPEVQFNWYVDGVEVHNAKTKPREEQFNSTYRVVSVLTVLHQDWLNGKEYKCKVSNKGLPSSIEKTISKAKGQPREPQVYTLPPCQEEMTKNQVSLWCLVKGFYPSDIAVEWESNGQPENNYKTTPPVLDSDGSFFLYSRLTVDKSRWQEGNVFSCSVMHEALHNHYTQKSLSLSLGK
